{"source": "the DeepSol protein solubility set"}
{"assay": "soluble on expression in E. coli; label from the status in PepcDB or PDB records"}
{"sequence": "MSLKLIGIVGSNADSSYNRLLLQYIGKEFYKMFDLEILEIKDIPMFNQSKDQTNSVLIQNMNRKILQADGVIIATPEHNHTIPAGLKSVLEWLSFKIHPLENKPVMIVGCSYYDQGTSRAQLHLRQILDAPGVNAIVMPGNEFLLGKAKEAFDENGNLIAEGTRQFLESTLQKFVEFIDVISKLEGAKPKDLPEDLHAKGTIETTIEGVDMAADDWVEQAAEAVQAVEGDTYVKLDRGILTVDQLNYFLKSMPMELTYADSNNQFLYYNKKMAAEEMFAKRQPGQVGNPLANCHPPKALKNVEWVIQQLRSGKTDAIRVHVPMHGPDTYVVHNYQAMYDDNGNYAGINEYILDFKPIVDWYLKQTGQELVGGKNVDAVSGASKKEAPETADSVSSASVHEEESATEKPTVDSVSSASIKEEGHHHHHH", "soluble on expression in E. coli": "soluble"}
{"sequence": "MSLKLPVPSPMRLAVTHEGRSIIYIPSPEYAVASGRLEPAWLEVFYNPAMEFNRDVSVVAASALRRTGLLTRSGVAFDAHAGVGVRGVRYAVEAGYVKVIMNDINPKASMLAALNARANGLEPGSYMIFNKESNSLMFHLSRERPTPVSLIDIDPYGSPAPFVDAALALSGKGTVVAMTATDLAVLEGGKARAAVRRYMLRSVSKTPVSKETGLRVLLGYVARVAAAHDKAVKPLLAYYADHYYRVYVAVERGARRSDSMLEENLGRLVYCPETGVALALSYAEDPASACGGSYVVAADPAWIGSLGDQAFLEAMLNIAVEAVWLGTRPRVEKLLNTLHGEAPLSPRSIYVSLTSVASKARVNTPKKSKVVELLRSMGYRAVATHFSGEGVRTDAPWGEVLEAVVKLGSSGEGHHHHHH", "soluble on expression in E. coli": "not soluble"}
{"sequence": "MSLKLVKLETFSTEFVCFVRATAEDGAQGWGQVAPYYADITAQVLHRQVAPYALGMACEDIDAMLDIVRDREHKFPGSYLRRAMGGVDTALWDMHGRRAGKPVCVLIGGTPGPVRAYGSSMKRDITPRDEAARLVRLRDEQGFDAFKFRIGAEVGRDRDEWPGRTEEIVPTMRRAMGDDVALLVDANSCYSPARAIEVGRMLEQHGISHYEEPCPYWEFAQTKEVTDTLDLDITGGEQDCLMERWQTMIADRVVDVLQPDICYLGGLSRTLRVARMAEAAGMPITPHAANLSMVTLFTMHLLRAIPNAGKYLEFSIEGLDYYPWQQGLFTSDPYRIEEGHATVTDAPGWGVDVNPDWLARSDYRVSELGEGHHHHHH", "soluble on expression in E. coli": "soluble"}
{"sequence": "MSLKMANPKYKRILIKLSGEALAGERGVGIDIQTVQTIAKEIQEVHSLGIEIALVIGGGNLWRGEPAAEAGMDRVQADYTGMLGTVMNALVMADSLQQVGVDTRVQTAIAMQQVAEPYVRGRALRHLEKGRIVIFGAGIGSPYFSTDTTAALRAAEIEADAILMAKNGVDGVYNADPKKDKTAVKFEELTHRDVINKGLRIMDSTASTLSMDNDIDLVVFNMNQSGNIKRVVFGENIGTTVSNNIEEKEEGHHHHHH", "soluble on expression in E. coli": "soluble"}
{"sequence": "MSLKNIVFDFGGVIVDIDRDKAVQAFIKLGLADADTRLDKYHQTGIFQELEEGKLSADEFRKQLGDLCGRELTMEETKQAWLGFFNEVDLRKLDYILGLRKSYHVYLLSNTNPFVMSWACSPEFSSEGKPLNDYCDKLYLSYQLGHTKPAPEIFDFMIKDSHVIPSETLFVDDGSSNIHIGKELGFETFQPENGADWRQELTVILNSEGHHHHHH", "soluble on expression in E. coli": "soluble"}
{"sequence": "MSLKNREWYKDAVFYEVLVRAFYDPEGNGVGSLKGLTEKLDYIQWLGVDCIWIPPFYDSPLRDGGYDIRNFREILPEFGTVDDFVELIDHAHRRGLRVITDLVMNHTSDQHAWFQESRRDPTGPYGDFYVWSDDPTLYNEARIIFVDTEESNWTYDPVRGQYFWHRFFSHQPDLNYDNPAVQEAMLDVLRFWLDLGLDGFRLDAVPYLFEREGTNGENLKETHDFLKLCRSVIEKEYPGRILLAEANQWPQDVVEYFGEKDKGDECHMAFHFPLMPRIFMGVRQGSRTPISEILANTPEIPKTAQWGIFLRNHDELTLEMVSDEERSYMYSQFAMEPRMRANVGIRRRLSPLLEGDRNQLELLHGLLLSLPGSPVLYYGDEIGMGDNIWLHDRDGVRTPMQWSNDRNGGFSKADPERLYLPAIQNDQYGYAQVNVESQLNRENSLLRWLRNQILIRKQYRAFGAGTYREVSSTNESVLTFLREHKGQTILCVNNMSKYPQAVSLDLREFAGHTPREMSGGQLFPTIAEREWIVTLAPHGFFWFDLTADEKDDMEEGHHHHHH", "soluble on expression in E. coli": "soluble"}
{"sequence": "MSLKPWLITPERLTSEQIGLLDHFFDRGLERLHLRLPSAGEEDYSQVIEAVAACYRRRIVVHDHPRLVGRYGLCGLHLPERVWKGMTDRPQLPDGCTVSASCHAIEDIESFPFRLDYCFLSPVFDSLCKVGYAGRFSPDSLGDRLQRLHLPVVALGGITPDRLPQLRRAGFASAAALGYVWLVEGRELMRWQELCTPAVICVGGVDPSAGAGITADVRTAENMGVRAYTVATAITFQGSGSYRGERWVDSADIIRQIESLSAEMEPAVAKIGLIRDSDTLSLVVDCLKKVFPSIRIVWDPVLRASADSSAGQADRFNLEDITALSRIDFITPNLPEARHLLGCEPDDETLLDFYRRSGVGLVLKGGHAGESVVTDRIVYDGRCEALRLLRGGTGKHGTGCAHSTAFAAALALEQEPFTAAGMAQLYVSRLRERASGLLAMHKDLPVDPVVRLMSEIDLQFITHRQPDLSELEEAEAVCRIGVRWVQLRMKEASDEEMLHTACAVKAVCRHHGALFVVNDRVEIARQVDADGVHLGKEDMAIVEARRILGSNKIIGRTCNTMEDVRRAYAEGADYVGIGPYRYTETKQRLAPVLGLEGYKAIAACMQAEGIRLPAFAIGGIEDADIPLIRDCGIGGIAVSGSLIRKIKKEGHHHHHH", "soluble on expression in E. coli": "soluble"}
{"sequence": "MSLKRFYSLFALPLITAATWANEPLPDRQTELPAVKKENHGEYLQPRDLSKIPNTAFGDQVKRGYSLFVNSQQMRGKYVGNEQNCVNCHMEAGRKANAAPLWAAYMAYPAYRKKNDRVNSYADRIQGCFEYSMNGKAPAYDSPEIVALSAYAYWLAMGGLLDSYGMNDEAVPELDIKALQVGGKAQDFPLPDAIAQALPVKERGNLAGRGYPKIAAPKQEPSPERGALVYEKNCETCHRADGSGIKGTDGHSYIPPLWGEFAYNWGAGMHRINTAAYFIYENMPLGKSVQLTEQEAWDVAAYINSHERPQDPRFKGNVTANAEKYHQHQGYYGKTLNGKQIGKNAFASGTEGHHHHHH", "soluble on expression in E. coli": "not soluble"}
{"sequence": "MSLKRIDRIYMYVKEKTAHLTKAEYDQGVTTQEIAEVLGIQRTNSSKDLNQLVREGKLIKTDGRPVRYIYQTLVTHVKPVTKHVVSYKETPVSEEKNTLQIDTKDIFAKIIGANGSMKNSVEQAKAAILYPPRGLNCLITGPTGSGKTYFAHAMYHFAKAHHVIDEETELIVFNCADYANNPELLMSHLFGYAKGAFTGADEEKMGIIDQADGGMLFLDEIHRLPPEGQEMIFYFMDHGTYSRLGETTKSHEANVRIVGATTEDPGSSLLETFVRRIPINIKLPAFEKRPANEKVDLVKIMIAHEANRTQRKISLTEDVAKALIGSVTYGNIGQLKSNIQLVCARGFLNHMQSPEISITIDDLTEGIRSGLIQLASNRSAMAELSKILEPKITVAPNEGHHHHHH", "soluble on expression in E. coli": "soluble"}
{"sequence": "MSLKRVLAAEYVRMSTEHQKYSLDNQSEYIREYSLRNNITIIHTYNDAGKSGLNISGRPGLKALLDDVINKKITISAILVYDVSRFGRFQDADEAGHYSHLLRKNGVKIIYCAEPFSEEHPEMFMLGLSFSRHGAASYSRNLSEKVFLGQVNLIKRGYHQGGVAGYGLRRLLIDEHEGHHHHHH", "soluble on expression in E. coli": "not soluble"}
{"sequence": "MSLKSFNEIIMKVKSKEMKKVAVAVAQDEPVLEAVRDAKKNGIADAILVGDHDEIVSIALKIGMDVNDFEIVNEPNVKKAALKAVELVSTGKADMVMKGLVNTATFLRSVLNKEVGLRTGKTMSHVAVFETEKFDRLLFLTDVAFNTYPELKEKIDIVNNSVKVAHAIGIENPKVAPICAVEVINPKMPSTLDAAMLSKMSDRGQIKGCVVDGPLALDIALSEEAAHHKGVTGEVAGKADIFLMPNIETGNVMYKTLTYTTDSKNGGILVGTSAPVVLTSRADSHETKMNSIALAALVAGNKEGHHHHHH", "soluble on expression in E. coli": "soluble"}
{"sequence": "MSLKSSFYYHRTMLGDKDKYADLKQRITALYHKHKGRYGYRRMTVALKHLGVHHNHKLIAKLMKQLTLSAKIRRQKYRSYKGQQGKIAKNYLKRRFKASKPHKRWLTDITEFKVGDHKLYLSPILDCYNNEIVSYTLSRRPTYDLVSQMLDKALDKTGKHRHKTLMLHSDQGWHYQMKPFREMLKKHQIKQSMSRKGNCLDNALMEGFFGTLKCETIYIEKPKTIEALERQIHEYIHYYNHERIQLKLKGLSPVQYRTQSLKEGHHHHHH", "soluble on expression in E. coli": "not soluble"}
{"sequence": "MSLKTPLKDEVFSFIDLETTGSCPIKHEILEIGAVQVKGGEIINRFETLVKVKSVPDYIAELTGITYEDTLNAPSAHEALQELRLFLGNSVFVAHNANFDYNFLGRYFVEKLHCPLLNLKLCTLDLSKRAILSMRYSLSFLKELLGFGIEVSHRAYADALASYKLFEICLLNLPSYIKTTMDLIDEGHHHHHH", "soluble on expression in E. coli": "not soluble"}
{"sequence": "MSLKTTTSSTPSDRITWVRISSCYLPLATPISDAKVLTGRQKPMTEIAILFAEIETAGGHQGLGFSYSKRAGGPGQFAHAREIAPALIGEDPSDIAKLWDKLCWAGASAGRSGLSTQAIGAFDVALWDLKAKRAGLSLAKLLGSYRDSVRCYNTSGGFLHTPIDQLMVNASASIERGIGGIKLKVGQPDGALDIARVTAVRKHLGDAVPLMVDANQQWDRPTAQRMCRIFEPFNLVWIEEPLDAYDHEGHAALALQFDTPIATGEMLTSAAEHGDLIRHRAADYLMPDAPRVGGITPFLKIASLAEHAGLMLAPHFAMELHVHLAAAYPREPWVEHFEWLEPLFNERIEIRDGRMLVPTRPGLGLTLSGQVKAWTREEAQVGTRPEGHHHHHH", "soluble on expression in E. coli": "soluble"}
{"sequence": "MSLKVATFIEPGKMVITDTPKPVIEQETDAVIKIVRACVCGSDLWWYRGISKRESGSFAGHEAIGIVEEVGTKVTDVSKGDFVIVPFTHGCGQCPSCKAGFDGNCTNHQAAKNVGYQGQYLRYTNANWALVKIPGQPSDYDNETLNSLLTLSDVMATGYHAAATAEVKEGDTVVVMGDGAVGLCGVIAAKMLGANRIIAMSRHKDRQELALTFGATDIVEERGDEAVKRVLDLTNQAGADAVLECVGTEQSVDTATQIARPGAVIGRVGIPQNPDMNTNNLFWKNIGLRGGIASVTTFDKSVLLDAVLTHKINPGLVFTKSFVLDDIQKAYEAMDKRDAIKSLVIVDEGHHHHHH", "soluble on expression in E. coli": "soluble"}
{"sequence": "MSLKVGISMFNILQSTQLSSNTFDFWLEAPRIATHAQAGQFVILRIDEKGERIPLTIAETNPQAGSIRIIFQVIGKTTAALSQLKTSDSLLDITGPLGMPTEVKQYGTVMVVGGGVGIAAIYPIIKALKEAGNRVITILGARTAELVLLQEECRRYSDELIITTDDGSLGKKGLVTEAMEEVIARESVACSWAIGPSIMMKFCTLTAEKHQLPIYVSLNPIMIDGTGMCGGCRVTVDGTMKFACVDGPEFKGNEVNWDEFINRMKQYQEEEAVCFTDRLKEQVEKNGEGGSHHHHHH", "soluble on expression in E. coli": "soluble"}
{"sequence": "MSLKVHGVILMNIEEWEEYRYVEAGIKESITLIEDPGLKKMVEHVCHSGGKRIRPIILLLVSEICSGSYSRSLNAALAVEMMHSASLIHDDLLDQGLVRRNLPSAPEKFGPSGALLCGDYLIAKSIAFISPYGEKVIQDFGKAGMDMAEGEVLDLKLEDESFGENDYFKCIYKKTASLFAISASIGAYTGGAEEELAERFSHFGNALGTAYQIVDDILEFLEVVEGKESKFTSETLPHIYMKSTSKEEALKKSIDCVKLHVAAAKETLETFRECPARDKLFQITDYITVDMLENLEGHHHHHH", "soluble on expression in E. coli": "soluble"}
